Laboratory results: patent publication US11833215B2, “CKIT antibody drug conjugates” (Novartis AG, priority 2014, dated 2023)
Entries after “also recorded” stand apart in the source; their conditions may differ.

Assays:
Human cKIT D1-D3 ECD = molecular target: T1, Human cKIT D1-D3 ECD (Homo sapiens, UniProt P10721, N130S/N145S); assay: crystal structure of cKIT ECD/NEG085 Fab complex
T1 construct: protein was made with residues Q26-G311; made in house
Experimental: Human cKIT (accession code NM_000222 domain 1 (D1)-domain 3 (D3) extracellular domain (ECD) protein was made with residues Q26-G311 ([…], N145S- these changes results in glycosylation deficiency, in order to express the protein in a glycan free form). Equal molar ratios of human cKIT D1-D3 ECD and NEG085 Fab were mixed and subjected to a final gel filtration step equilibrated with 20 mM Tris-HCl pH 7.5 and 100 mM NaCl, and concentrated to 20 mg/ml. Trypsin was added to the protein complex crystallization sample to create a 1:100 w/w dilution. The protease/sample mixture was incubated at room temperature for 30 minutes before setting up the crystallization experiment.
Diffracting crystals of the cKIT ECD/NEG085 Fab complex were obtained directly from Protein Complex Suite F5 (0.1M NaCl, 0.1M Tris pH 8.0, 8% PEG 20 k; Qiagen) at 4° C. and, after minor optimization, led to crystals diffracting to 5 Å in-house. […]
Data were collected on a single crystal cooled to 100K using an ADSC QUANTUM 315 detector (ADSC, Poway CA) and synchrotron radiation (λ=1.0000 Å) at the beam line 5.0.2 of the Advanced Light Source. […] The crystal contains four copies of the cKIT ECD/NEG085 Fab complex in the asymmetric unit with a calculated solvent content of 66%. […]

primary human mast cells = assay: mast cell degranulation (β-hexosaminidase release); format: cell-based; conditions: 0.05-100 nM, 90 min
Experimental: Primary human mast cells were cultured from peripheral human blood according to the methods described by Saito et al., (supra). Mast cells, which had been in liquid culture for a minimum of one week, were pre-treated with 5% Ag-specific IgE JW8 (in-house batch ACE 27283), 95% non-specific monoclonal human IgE (Abbiotec, Cat #12030635, San Diego, CA) and 10 ng/mL rhIL-4 (R&D Systems Cat #204-IL, Minneapolis, MN) for 5 days at 37° C. The cells were then incubated with increasing concentrations (0.05-100 nM) of an isotype control IgG, the anti-human cKIT Abs, 20376 and NEG085, the anti-IgE Ab, LE27, or the NIP(5)BSA antigen, in the presence of a goat anti-human IgG (H+L) Fc-specific Ab (Jackson ImmunoResearch, Cat #109-005-008-JIR, West Grove, PA) for 90 min at 37° C. Cells were then centrifuged and the supernatants were transferred into 96-well black-walled plates prior to the addition of the β-hexosaminidase substrate. Following 90 min incubation at 37° C., the reaction was stopped by the addition of tris-base (Sigma, Cat #T1503-500G, pH 12, St. Louis, MO) and the fluorescence intensity was recorded on the Envision® plate reader.

[1] = test system: surface cKIT on GIST-T1 cells; assay: cKIT Ab-mediated internalization by flow cytometry; format: cell-based; conditions: 10 μg/ml, 37° C., 30 min to 24 hr
Experimental: The kinetics of cKIT antibody mediated internalization was evaluated by treating with antibody in a cell monolayer using a temperature shift method and flow cytometry readout. GIST-T1 (kindly provided by Dr. Takahiro Taguchi, Kochi U., Japan) cells were seeded at 2.5×10E5 cells/well in five 12-well tissue culture treated plates (BD Falcon 353043). The cells were incubated in a tissue culture incubator at 37° C. with 5% CO2 overnight. The following day medium was removed and replaced with 450 μl fresh medium. The cKIT antibodies NEG085, 20376 and an isotype control were prepared at 10×10 μg/ml concentration in appropriate cell culture medium and 50 μl of test cKIT antibody or isotype was added per well with final concentration of 10 μg/ml. All cells were incubated for 1 hr on ice, followed by two washes with 1 mL 1× Phosphate buffered saline (PBS) and resuspended in 500 μl cell culture medium. […] The following day, all samples were analyzed using the BD FACSCanto II 0 equipment using a HTS system (BD Biosciences, San Jose, CA). Samples were analyzed with FlowJo software to obtain the Geometric Mean values of fluorescence for the Phycoerythrin channel, FIG. 4A is a plot of % of initial cell surface binding vs Geometric Mean-PE 4° C. binding/Geometric Mean-PE timepoint at 37° C.×100.

T1 sequence (P10721 26-311 N130S/N145S limits assumed): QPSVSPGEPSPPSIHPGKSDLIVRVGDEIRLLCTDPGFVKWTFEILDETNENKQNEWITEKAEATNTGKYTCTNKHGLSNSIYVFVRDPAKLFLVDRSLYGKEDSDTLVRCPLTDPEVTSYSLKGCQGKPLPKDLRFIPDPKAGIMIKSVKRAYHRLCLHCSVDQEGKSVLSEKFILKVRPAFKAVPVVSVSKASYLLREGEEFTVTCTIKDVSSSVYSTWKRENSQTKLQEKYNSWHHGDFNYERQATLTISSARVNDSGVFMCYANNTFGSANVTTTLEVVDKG

B1: NEG085: anti-cKIT antibody of Table 3, VH SEQ ID NO 82, VL SEQ ID NO 91 (antibody, listed as Homo sapiens, V domains shown)
VH: EVQLVESGGGLVQPGGSLRLSCAASGFAFSGYYMAWVRQAPGKGLEWVANINYPGSSTYYLDSVKGRFTISRDNAKNSLYLQMNSLRAEDTAVYYCARGDYYGTTYWYFDVWGQGTTVTVSS
VL: DIQMTQSPSSLSASVGDRVTITCRASQSISSYLNWYQQKPGKAPKLLIYYTSRLQSGVPSRFSGSGSGTDFTLTISSLQPEDFATYYCQQGRRLWSFGGGTKVEIK
competition with SCF for binding to cKIT (superposition of structures) (Human cKIT D1-D3 ECD): appear to not compete
solvent-accessible surface area buried by NEG085/cKIT interface (Human cKIT D1-D3 ECD; total, H and L chain): ~1890 Å2
degranulation of primary human mast cells (primary human mast cells): do not mediate primary human mast cell degranulation; also recorded: do not induce mast cell degranulation
internalization of surface cKIT on GIST-T1 cells [1]: mediate rapid internalization; also recorded: rapidly internalized
